Source: patent publication US20190256586A1 (Johns Hopkins, published 2019)

B1: anti-PSSP17 mAb 10E2.B7 IgG (antibody, V domains shown)
VH: EVQLVESGGDLVKPGGSLKLSCAASGFTFSSYGMSWVRQTPDKRLEWVATISSGGSYIYYPDSMKGRFTMSRDNAKNTLYLQMSSLKSEDTAMYYCAREERDWLAYWGQGTLVTVSA
VL: DVVMTQSPLSLPVSLGDQASISCRSSQSLIHNNGDIYVHWYLQKPGQSPKLLIYKVSNRFSGVPDRFSGSGSGTDFTFKISRVEAEDLGVYFCSQSSHVPPTFGGGTKLEIK
notes: Used biotinylated (20:1 biotin:antibody) as the capture antibody of the SMAART-PSSP17 lateral flow assay; also called biotinylated anti-PSSP17 10E2.B7; Bio-Ab
B2: anti-PF3D7_1218800 mAb 27C9.B5 IgG (antibody, V domains shown)
VH: QVQVRQSGAEVVRPGTSVRVSCKTSGYAFTDYLIEWVKQRPGQGLEWIGVINPVRGTTNYSEKFKGKATLTADKSSGTAYMQFYSLTSDDSAVYFCARSRGSDGFPYWGQGTLVTVSA
VL: DVLMTQTPLSLPVSLGDQASISCRSSQSIVHSNGYTYLEWYLQKPGQSPKLLIYKLSNRFSGVPDRFSGSGSGTDFTLKISRVEAEDLGVYYCFQGSHIPYTFGGGTKLEIK
notes: Used covalently coupled to Europium(III)-chelate carboxylate polystyrene microparticles as the detection antibody of the SMAART-PSSP17 lateral flow assay; also called EuChelate nanoparticle-conjugated anti-PSSP17 27C9.B5 mAb; MP-27C9.B5 conjugate

Target: T1, recombinant PSSP17 (117 amino acid fragment of P. falciparum PSSP17 with a HIS tag, expressed in E. coli) (Plasmodium falciparum)
T1 construct: Antigen used to raise 10E2B7 and 27C9B5; spiked into naive human saliva in the lateral flow assays; also called recombinant PfPSSP17; recombinant subunit PSSP17; not shown: HIS tag from the expression vector
T1 chain: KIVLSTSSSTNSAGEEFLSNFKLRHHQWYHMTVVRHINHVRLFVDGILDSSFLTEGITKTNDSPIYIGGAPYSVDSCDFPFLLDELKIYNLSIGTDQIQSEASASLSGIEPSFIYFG
Experiment: sandwich lateral flow immunoassay (gRAD strip, streptavidin test line); lower limit of detection of recombinant PSSP17 printed as 1-5 ng/mL

| Binder | binding result |
| --- | --- |
| B1 | binds |
| B2 | binds |
